Laboratory results from patent publication US20170182119A1 (Dana-Farber, published 2017).

T1: MYC-NCOA4 full-length (human, UniProt Q13772 1-614)
T1 construct: not shown: N-terminal MYC tag (vector pT7CFE1-NMyc)
T1 sequence: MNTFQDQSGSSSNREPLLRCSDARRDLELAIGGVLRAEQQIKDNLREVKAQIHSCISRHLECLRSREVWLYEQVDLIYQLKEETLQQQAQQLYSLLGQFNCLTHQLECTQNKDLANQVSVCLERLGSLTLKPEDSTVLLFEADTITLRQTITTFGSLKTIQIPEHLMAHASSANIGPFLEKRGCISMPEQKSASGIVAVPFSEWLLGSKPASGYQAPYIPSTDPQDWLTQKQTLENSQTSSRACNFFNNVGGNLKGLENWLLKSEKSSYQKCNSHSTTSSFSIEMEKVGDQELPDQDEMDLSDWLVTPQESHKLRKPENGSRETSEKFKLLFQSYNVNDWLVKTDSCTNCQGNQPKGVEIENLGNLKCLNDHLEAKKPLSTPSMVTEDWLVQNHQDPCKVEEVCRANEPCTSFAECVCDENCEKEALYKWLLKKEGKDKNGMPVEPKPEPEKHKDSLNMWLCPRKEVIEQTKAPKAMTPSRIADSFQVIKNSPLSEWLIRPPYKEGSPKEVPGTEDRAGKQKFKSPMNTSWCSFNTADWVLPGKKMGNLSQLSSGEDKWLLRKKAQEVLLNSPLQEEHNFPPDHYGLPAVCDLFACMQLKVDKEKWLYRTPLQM

T2: C-terminal MYC-NCOA4 (aa 235-614) (human, UniProt Q13772 235-614)
T2 construct: In vitro translated; also called C-terminal NCOA4; NCOA4 C-terminal fragment; not shown: N-terminal MYC tag (vector pT7CFE1-NMyc)
T2 sequence: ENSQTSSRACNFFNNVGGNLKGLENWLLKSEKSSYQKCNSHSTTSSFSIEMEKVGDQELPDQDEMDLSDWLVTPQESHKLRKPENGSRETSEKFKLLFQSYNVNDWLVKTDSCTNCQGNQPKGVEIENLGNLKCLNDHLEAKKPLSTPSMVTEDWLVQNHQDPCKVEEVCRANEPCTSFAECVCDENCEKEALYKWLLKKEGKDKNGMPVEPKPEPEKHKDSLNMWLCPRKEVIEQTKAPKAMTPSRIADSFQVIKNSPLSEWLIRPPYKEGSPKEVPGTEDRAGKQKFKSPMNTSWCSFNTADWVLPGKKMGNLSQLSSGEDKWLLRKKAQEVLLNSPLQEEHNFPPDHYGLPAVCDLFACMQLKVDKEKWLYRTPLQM

B1: ferritin purified from horse spleen (mixture of FTH1 and FTL subunits) (other)
chain 1: TTAFPSQVRQNYHQDSEAAINRQINLELHASYVYLSMSFYFDRDDVALKNFAKYFLHQSHEEREHAEKLMKLQNQRGGRIFLQDIKKPDQDDWENGLKAMECALHLEKNVNESLLELHKLATDKNDPHLCDFLETHYLNEQVKAIKELGDHVTNLRRMGAPESGMAEYLFDKHTLGECDES
chain 2: SSQIRQNYSTEVEAAVNRLVNLYLRASYTYLSLGFYFDRDDVALEGVCHFFRELAEEKREGAERLLKMQNQRGGRALFQDLQKPSQDEWGTTLDAMKAAIVLEKSLNQALLDLHALGSAQADPHLCDFLESHFLDEEVKLIKKMGDHLTNIQRLVGSQAGLGEYLFERLTLKHD
notes: Bought from Sigma (A3641 in the MYC assays, F4503 in the GST pull-downs); detected with anti-FTH1 antibody; also called Apoferritin; apo-ferritin purified from equine spleen
B2: N-terminal MYC-NCOA4 (aa 1-245) (other)
chain: MNTFQDQSGSSSNREPLLRCSDARRDLELAIGGVLRAEQQIKDNLREVKAQIHSCISRHLECLRSREVWLYEQVDLIYQLKEETLQQQAQQLYSLLGQFNCLTHQLECTQNKDLANQVSVCLERLGSLTLKPEDSTVLLFEADTITLRQTITTFGSLKTIQIPEHLMAHASSANIGPFLEKRGCISMPEQKSASGIVAVPFSEWLLGSKPASGYQAPYIPSTDPQDWLTQKQTLENSQTSSRACN
notes: In vitro translated; also called N-terminal NCOA4; NCOA4 N-terminal fragment; not shown: N-terminal MYC tag (vector pT7CFE1-NMyc)
B3: MYC-tagged NCOA4B (transcript variant, amino acids 1-238 and 555-614 of full-length NCOA4) (other)
chain: MNTFQDQSGSSSNREPLLRCSDARRDLELAIGGVLRAEQQIKDNLREVKAQIHSCISRHLECLRSREVWLYEQVDLIYQLKEETLQQQAQQLYSLLGQFNCLTHQLECTQNKDLANQVSVCLERLGSLTLKPEDSTVLLFEADTITLRQTITTFGSLKTIQIPEHLMAHASSANIGPFLEKRGCISMPEQKSASGIVAVPFSEWLLGSKPASGYQAPYIPSTDPQDWLTQKQTLENSQGEDKWLLRKKAQEVLLNSPLQEEHNFPPDHYGLPAVCDLFACMQLKVDKEKWLYRTPLQM
notes: in vitro translated; also called NCOAB; not shown: N-terminal MYC tag (vector pT7CFE1-NMyc)

Key:
[1] = target: T1, MYC-NCOA4 full-length; assay: anti-MYC immunoprecipitation of in vitro translated MYC-NCOA4 with horse spleen ferritin, immunoblot
[2] = target: T2, C-terminal MYC-NCOA4 (aa 235-614); assay: as above
[3] = target: B1; assay: anti-MYC immunoprecipitation of in vitro translated MYC-NCOA4 with horse spleen ferritin, FTH1 immunoblot
[4] = target: B1; assay: anti-MYC immunoprecipitation of in vitro translated MYC-NCOA4B with horse spleen ferritin, FTH1 immunoblot

Q: Does B1 bind [1]?
A: binds

Q: Does B1 bind [2]?
A: binds

Q: Does B2 bind [3]?
A: no binding

Q: Does B3 bind [4]?
A: no binding
